Results on one molecule are retold here after patent US20230057987A1 (published 2023).

The target in assay [1] is CT45-IP-HLA-A*02 dextramer (human). Put plainly: flow cytometry, dextramer staining of TCR-mRNA electroporated T cells, gated on CD3+. (Flow cytometry measures light scatter and fluorescence of single cells or particles in a stream.)
For assay [2], the target named is T1, CT45 (CT45A1, A2, A3, A5 to A10); CT45-IP peptide on HLA-A*02:01 (human).
T1 peptide: KIFEMLEGV
Nature of the assay: CT45-IP-HLA-A*02 dextramer on T cells with TCR mRNA; TCR found by tetramer sorting; full-length, on cells.

The target of assay [3] is CT45-IP antigenic peptide (…) in complex with HLA-A*02 presented on cells (peptide-loaded T2 cells; NCIH1703 and A375 tumor cells) (human). Nature of the assay: cell-based or functional assay.
Assay [4] has as its target T1, CT45 (CT45A1, A2, A3, A5 to A10); …. Nature of the assay: luciferase release, 24 h, 1:1; CD8+ T cells with TCR mRNA, T2 cells with titrated peptide; full-length, on cells.
The target in assay [5] is T2, CT45-IP alanine variant, position 4 peptide on HLA-A*02:01 (human).
T2 peptide: KIFAMLEGV
Nature of the assay: killing.

Assay [6] addresses T3, CT45-IP alanine variant, position 1 peptide on HLA-A*02:01 (human).
T3 peptide: AIFEMLEGV
Nature of the assay: killing.

Assay [7] addresses T4, similar peptide SP-05-0007, source protein not stated peptide on HLA-A*02:01 (human).
T4 peptide: KIFPALCTV
Put plainly: killing.

Assay [8] has as its target T5, similar peptide SP-05-0006, source protein not stated peptide on HLA-A*02:01 (human).
T5 peptide: KIAELLENV
Put plainly: killing.

Assay [9] deals with T6, CT45-IP alanine variant, position 8 peptide on HLA-A*02:01 (human).
T6 peptide: KIFEMLEAV
Nature of the assay: killing.

Assay [10] deals with T7, similar peptide SP-05-0005, source protein not stated peptide on HLA-A*02:01 (human).
T7 peptide: KIEEFLEAV
Put plainly: killing.

Assay [11] addresses T8, similar peptide SP-05-0002, source protein not stated peptide on HLA-A*02:01 (human).
T8 peptide: KIFSGLLKV
Nature of the assay: killing.

Assay [12] addresses T9, similar peptide SP-05-0001, source protein not stated peptide on HLA-A*02:01 (human).
T9 peptide: HIMEHLEGV
Put plainly: killing.

Assay [13] concerns the target T10, CT45-IP alanine variant, position 3 peptide on HLA-A*02:01 (human).
T10 peptide: KIAEMLEGV
Put plainly: killing.

The target of assay [14] is T11, similar peptide SP-05-0008, source protein not stated peptide on HLA-A*02:01 (human).
T11 peptide: KILDELEKV
Nature of the assay: killing.

In assay [15] the target is T12, CT45-IP alanine variant, position 6 peptide on HLA-A*02:01 (human).
T12 peptide: KIFEMAEGV
Nature of the assay: killing.

For assay [16], the target named is T13, similar peptide SP-05-0003, source protein not stated peptide on HLA-A*02:01 (human).
T13 peptide: KVTEMLVNV
Put plainly: killing.

For assay [17], the target named is T14, similar peptide SP-05-0004, source protein not stated peptide on HLA-A*02:01 (human).
T14 peptide: KIWEWLVGV
Put plainly: killing.

Assay [18] deals with T15, similar peptide SP-05-0009, source protein not stated peptide on HLA-A*02:01 (human).
T15 peptide: KIIDLLPKV
Nature of the assay: killing.

The target of assay [19] is T16, similar peptide SP-05-0010, source protein not stated peptide on HLA-A*02:01 (human).
T16 peptide: RIFETVNSV
Nature of the assay: killing.

B1: TCR-8 (TCR, V domains shown)
Valpha: QKVTQAQTEISVVEKEDVTLDCVYETRDTTYYLFWYKQPPSGELVFLIRRNSFDEQNEISGRYSWNFQKSTSSFNFTITASQVVDSAVYFCALSGRGSGTYKYIFGTGTRLKVLA
Vbeta: GVIQSPRHLIKEKRETATLKCYPIPRHDTVYWYQQGPGQDPQFLISFYEKMQSDKGSIPDRFSAQQFSDYHSELNMSSLELGDSALYFCASSAGTSYNEQFFGPGTRLTVL
As for B1, the surface expression, % positive events by CT45-IP-HLA-A2*02 dextramer staining in [1] was determined as 60.7%. Besides, the dextramer-positive events in assay [2] is 60.7%. Moreover, the EC50, half maximal killing capacity (functional avidity; CT45-IP peptide titration on T2 cells, luciferase release) in assay [3] came out at 6.52 nM. The EC50 of peptide in [4] amounted to 6.52 nM. The binding result in [5] is “recognises”; in assay [6] it was “recognises”; in assay [7], “no recognition”; in assay [8], “no recognition”; in assay [9], “recognises”; in assay [10], “no recognition”. Besides, the binding result in assay [11] was “no recognition”; in assay [12], “no recognition”; in assay [13], “recognises”; in assay [14] it was “no recognition”; in assay [15] it was “recognises”; in [16], “no recognition”. In addition, the binding result in [17], in [18] and in assay [19] was “no recognition” in each case.
